Where a chain is given by its changes, count along the chain named.

In the assay the target is T1, human CD47 (human, UniProt Q08722 19-139, limits assumed, biotinylated in the ELISAs (site not stated)).
T1 construct: also called biotinylated CD47; CD47 receptor
Put plainly: SPR (BIACORE). For orientation: SPR reads the build-up and loss of mass on a sensor chip optically.

T1 sequence (Q08722 19-139 limits assumed): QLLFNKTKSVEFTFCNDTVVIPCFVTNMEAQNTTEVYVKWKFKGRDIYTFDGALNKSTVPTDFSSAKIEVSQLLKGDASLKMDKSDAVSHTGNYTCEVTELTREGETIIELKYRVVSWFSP

B1: C47A8 (antibody, V domains shown)
VH: QVQLVQSGAEVKKPGASVKVSCKASGYTFTSYYMHWVRQAPGQGLEWMGIINPSGGSTSYAQKFQGRVTMTRDTSTSTVYMELSSLRSEDTAVYYCARSTLWFSEFDYWGQGTLVTVSS
VL: QSVLTQPSSVSASPGQSITISCSGTSSDVGGHNYVSWYQQHPGKAPKLMIYDVTKRPSGVPDRFSGSKSGNTASLTVSGLQAEDEADYYCCSYAGSRVYVFGTGTKLTVL
notes: also called CD47A8
The term Kd denotes the equilibrium constant for the complex coming apart. A lower Kd goes with a tighter complex. What is called koff is the rate constant with which the complex falls apart. Read a high koff as a short-lived complex. Broadly, the kon is the second-order rate constant of association. High values mean fast association, low ones slow association. For B1, the Kd is 82.3 nM, the koff came out at 0.047 s⁻¹ and the kon came out at 576000 M⁻¹ s⁻¹.

B2: C47B10 (antibody, V domains shown)
VH: B1 VH
VL: QSVLTQPASVSGSPGQSISISCTGTSSDVGGHNYVSWYQQHPGKAPKLMIYDVRNRPSGVSNRFSGSKSGSTASLTISGLQTEDEADYYCNSYTGSRTYVFGSGTKLTVL
notes: lambda light chain (captured with anti-human lambda); also called CD47B10
As for B2, the affinity, expressed as Kd, was 12.1 nM; the koff came to 0.00129 s⁻¹; the on-rate (kon) came to 106000 M⁻¹ s⁻¹.

B3: C47A8-CS (antibody, V domains shown)
VH: B1 VH
VL: B1 VL with C91S
The molecule B3 returned a Kd of 156 nM, a koff of 0.034 s⁻¹ and a kon of 215000 M⁻¹ s⁻¹.

B4: C47A8-CQ (antibody, V domains shown)
VH: B1 VH
VL: B1 VL with C91Q
Turning to B4, the Kd amounted to 156 nM, the koff came out at 0.02 s⁻¹ and the kon came to 129000 M⁻¹ s⁻¹.

Values taken from US20160257751A1 (SORRENTO THERAPEUTICS, published 2016).
